From patent US20230263832A1, “TARGETED DRUG DELIVERY TO SITES OF INTRAVASCULAR OCCLUSION” (Children's Medical Center Corporation, priority 2020, published 2023)

System: RBC aggregates in SCD mouse liver
Test: TNFα-induced vaso-occlusion in SCD mouse liver (LaSC, 3 parameters)
Assay type: in vivo
Details: SS mice, TNFα 1 μg/mouse i.p. 1 h
Description: FIG. 12: Parameters of RBC aggregates were determined to quantitate vaso-occlusion in SCD mouse liver. SCD mice were injected with TNFα (1 μg/mouse; 1 h) to induce inflammatory vaso-occlusion, followed by CO2 euthanasia and PBS perfusion to flush unbound RBCs in the vasculature. The livers were harvested and fixed by PLP fixative, followed by cryosectioning and immunofluorescent staining with antibodies against Ter119 (for RBC marker), Endoglin (for sinusoidal vasculature), S100A8 (for neutrophils), and DAPI (for nuclei). Stained slides with fluorescent dye-labeled secondary antibodies were scanned on laser scan cytometry (LaSC), followed by quantitative imaging analysis (iCys software) to quantitate the # of RBC aggregates that are larger than 100 μm^2, total area of RBC aggregates, the # neutrophil-containing RBC aggregates by iCys software. Arrows indicate the neutrophil-containing RBC aggregate in liver sinusoid.
SCD SS and control AA mice were injected with or without TNFα (1 μg/mouse; 1 h) to induce inflammatory vaso-occlusion, followed by CO2 euthanasia and PBS perfusion to flush unbound RBCs in the vasculature. Immunofluorescent staining of liver cryosections was performed as described in FIG. 12 to produce LaSC images, which were subjected to quantitative imaging analysis of RBC aggregates for 3 parameters in SCD mouse livers (see FIG. 14).
From FIG. 13 LaSC scanning, cytometric events are defined by automatic image segmentation on specific channels by iCys software to quantitate # of RBC aggregate, total area of RBC aggregates, # of neutrophil-containing RBC aggregates by iCys software (Park et al. 2020). […]
(FIG. 15A) Representative images show the increased RBC aggregates upon TNFα injection in SCD mouse liver. (FIG. 15B) This was followed by quantitative imaging analysis (iCys software) to quantitate # of RBC aggregate, total area of RBC aggregates, # of neutrophil-containing RBC aggregates by iCys software. […]

TNFα
increase of # of RBC aggregates: 51% | increase of # of neutrophil-containing RBC aggregates: 182% | increase of total area of RBC aggregates: 59%
